According to the nanobody polyreactivity screen of Harvey et al. (2022):

Assay: yeast display, Sf9 membrane polyspecificity reagent, FACS + sequencing; frameworks hold sequencing errors
Outline: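 Nanobodies came from a synthetic yeast display library in Saccharomyces cerevisiae BJ5465, induced with galactose for 36–48 hours and stained for 1 hour at 4 °C with 10% biotinylated, detergent-solubilized Sf9 membrane reagent. Cells were enriched on streptavidin microbeads and then FACS-sorted, with low and high (top ~1%) gates set on anti-HA fluorescence for expression and streptavidin fluorescence for reagent binding. Each polyreactivity label reflects the gate a clone came from. Genes were amplified by colony PCR, sequenced by MiSeq 2 × 250 and filtered by CDR length.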

Sequence	polyreactivity (PSR sort gate)
QVQLVESGGGLVQAGGSLRLSCAASGFIFSYYVMGWYRQAPGKERELVAGISWNGGRTYYADSVKGRFTISRDNAKNTVYFQMNSLKPEDTAVYYCAKDPYSKRRASSGYDYWGQGTQVTVSS	low polyreactivity
QVQLVESGGGLVQAGGSLRLSCAASGRIFPRNTMGRYRQAPGKERELVAGITSGGGTYYADSVKGRFTISRDNAKNTVYFQMNRLKPEDTAVFYCAARPWRSRYYGGLGRRFDYWGQGTQVTVSS	high polyreactivity
QVQLVESGGGLVQAGGSLRLSCAASGFTFYYYAMGLYRQAPGKERELVAAITYSGGSTYYADSVKGRFTISRDNAKNTVYLQMNSLKPEDTAVYYCAAEAIPRLSWWYGVDYWGQGTQVTVSS	low polyreactivity
QVQLVESGGGLVQAGGSLRLSCAASGSTFTTNAMGWDRQAPGKERELVAAITWSVGSTYYADSVKGRFTISRDYAKNTVYLQMNSVKPEDNAVYYCAAYHPPGDTYEYWGQGTQVTVSS	low polyreactivity
QVQLVESGGGLVQAGGSLRISCAASGSIFRIYAMGWYRQAPGKERELVAAISWTGGSTYYADSVKGRFSISRDNAKNTVYLQMNSMKPDDTAVYYCASRPRYKFSAYEYWGQGTQVTVSS	high polyreactivity
QVQLVESRGGLVQAGGSLRLSCAASGFIFTRNAMGWYRQAHGKVRELVAAISYSGGSTYYADSVKGRFTISRDNAKNTVYLQMNSLKPEDTAVYYCNVSPTTSGDGGGYDSWGQGTLVTVSS	low polyreactivity
QVQLVESGGGLVQAGGSLRLSCAASGFTFRSNAMGWYRQAPGKERELVAAITRGGGSTYYADSVKGRFTISRDNEKNTVYLQMNSLKPEDTAVYYCAAGGFRTSRRDYWGQGTQVTVSS	high polyreactivity
QVQLVESGGGLVQAGGSLRLSCAASGLIFRWYAMGWYRQAPGKEREMVAAISRRGGTTNYADSVKGRFTISRDNAKNTVYLQMTSLKPEDTAVYYCAADYQSVGGAEYDYWGQGTQVTVSS	high polyreactivity
QVQLVESSGGLVQAGGSLRLRCAASGMISEYNAMGWSRQAPGKERELVAAITWNGGSTFYADSVKGRFTISRDNAKNTVYLQMNSLKPEDTAVYYCNKTRLEPEYGYWGQGTQVTVSS	low polyreactivity
QVQLVESGGGLVQAGGSLRLSCAASGGTFYYYAMGWYRQAPGKERELVAAITGTGGRTYYADSVKGRFTISRDNAKNTVYLQMNSLKPEDTAVYYCAKYPAARAVDYWGQGTQVTVSS	high polyreactivity
QVQLVESGGGLVQAGGSLRLSCAASGITFDSNTKGWYRPAPGKEREFVATISYSGGSTYYADSVKGRFTISRDNAKNTVYFQMNSLKPEDTAVYYCHADYYGGPTMQYGYLWYDYWGEGTQVTVSS	low polyreactivity
QVQLVESGGGLVQAGGSLRLSCAASGNIFGFYTMGWYRQAPGKERELVAAIRSRGGSTNYADSVKGRFTISRDNAKNTVYIQMNSLKPEDTAVYYCNKDGTWLARAVTYADFDYWGQGTQVTVSS	low polyreactivity
QVQLVESGGGLVQAGGSLRLSCAASGSILDIYAMGWSRQAPGKERELVAGISTSGGSTYYADSVKGRFTISRDNAKNTVYLQMNSLKPEDTAVYYCAKDYGYQGHTRTLYWAYLEYDYWGQGTQVTVSS	low polyreactivity
QVQLVESGVGLVQAGGSLRLSCAASGISFVGNAMGWYRQAPGKERELVASINSGGSTYYADSVKGRFTISRDNAKYTVYLQMNSLKPADTAVYYCAVEEDRYYYDDYDYWGQGTQVTVSS	low polyreactivity
QVKLVESGGGIVQAGGSLRLSCAASGIIFARNAMGCYRQAPGKERELVAGINGGRKNYADSVKGSFTISRDNAKNTVYLQMNSLKPEDSAVYYCAARNKGTLYRYGYWGQGTQVTVSS	high polyreactivity
QVQLVESGGGLVQAGGSLRLSCAASGFTFPGNAMGWYRHPPGKERELVAAISSTDRTTNADSVKGRFTISRDNAKNTGYLQMNSLKPEDTAVYYCYTATRRRPRGYWGQGTQVTVSS	high polyreactivity
QVQLVESGGGLVQAGGSLRLICAASGFIITRNAMVWYRPAPGKERELGAVISYGGGSTYYADSVKGRFTISRDNAKNTVYLQMNSLKPEDTAVYYCAADPTWRYYYHYTYYYWGQGTQVTVSS	high polyreactivity
QDQLVESGGGLVQAGGSLRISCDASGTTFQTYVMGWYRQAPGKERELVAAISSGGSTNYADSVKGRFTISRDNAKNTVYLQMNSLKPEDTAVYYCAKRWPYFRRGKDGYWGQGTQVTVSS	low polyreactivity
QVQLVESGGGLVQAGGSLRLSCAASGRTFLYSTMGWYRQAPGKERELVAAISKSVGRTYYADSVKGRFTISRDNAKNTVYLQMNSLKPEDTAVYYCAKRWYAGAQHGFDYLGQGTQVTVSS	low polyreactivity
QVQLVESGGGLVQAGGSLRLSCAASGFIFGFNAMGWYRQAPGKERELVAVISARGGRTYYADSVKGRFTISRDNAKNTVYLQMNSLKPEDTAVYYCAADDFFRYFFTHWVGDDYWGQGTQVTVSS	low polyreactivity
QVQLVESGGGLVQAGGSLRLSCAASGRTFKYYAMGCYRQARGKERELVAAISGSGGSTYYADSVKGRFTISRDNAKNTVYLQMNSLKPEDTAVYYCATGGGKTRSYNYWGKGTQVTVSS	high polyreactivity

Sequence	polyreactivity (PSR sort gate)
QVQLVESGGGLVQAGGSLRLSCAASGITFSFYAMGWYRQAPGKERELVATIDSGGSTNYADSVKGRFTISRDNAKNTVYLQMNSLKPEDTAVYYCAVVFHYSTIGGGYRPRMYYWGQGTQVTVSS	low polyreactivity
QVQLVESGGGLVQAGGSLRLSCAASGSTFRSYVMGWYRQAPGKERELGAGISYRGGTTYYADSVKGRFTISRDNAKNTVYLQMNSLKPEDTAVYNCAADSTPYVLSGNYDYWGQGTQVTVSS	low polyreactivity
QFQLVESVGGLVQAGSRLRLSCAASGRTFIPYAMGWYRQAPGKERELVAAITSSGGLTYYADSVMGRFTISRDNAKNTVYLQMNSLKPEDTAVYYCNKYARGYDMDYWGHGTQVTVSS	high polyreactivity
QVQLVESGGGLVQAGGSLRLRCAASGGTFRYNAMGWYRQAPGKERELVAAISSSGGSTYYADSVKGRFTISRDNAKNTVYLQMNSLKPEDTAVYYCAAKRRRYVELDYWGQGTQVTVSS	high polyreactivity
QDQLVESGGGLVQAGGSLRLSCAASGRTIVLNPMGWYRQAHGKERELVAAISSGGSTNYADSVKGRFTISRDNAKNTVYLQMNSLNPEDTAVYYCAGQDVNLYSAYYYWGQGTQVTVSS	low polyreactivity
QVQLVESGGGLVQAGGSLRLSCAASGSIFYVYAMGWYRQAPGKERELVAAITNYADSVKGRFTISRDNAKNTVYLQMNSLKPEDTAVYYCAADWWRVEMDYWGQGTQVTVSS	low polyreactivity
QVQLVESGGGLVQAGGSLRLSCAASGRIFRGNTMGWYRQAPGKERELVAAITRGGSTSYADSVKGRFTISRDNAKNTVYLQMNSLKPEDTAVYYCATRTHGEGTRRDSWGQGTQVTVSS	low polyreactivity
QDHLVESAAGLVQAGGRLRLSCAASGSTLYDYAMVWSRKAPGKDRELVAAIRTGGSTYYADSVKGRFTISRDNAKNTVYLQMNSLKTEDTAVYYCAADHGYQYGYWGQGTQVTVSS	low polyreactivity
QVQLVESGGGLVQAGGSLRLSCAASGFTFDYYAMGWYRQAPGKERELVAAISWSGSTTYYADSVKGRFTISRDNAKNTVYLQMNSLKPEDTAVYYCATNLDRPFDYWGQGTQVTVSS	high polyreactivity
QVQLVESGGLLVQAGGSIRITCAASGSTLWFNAMGWYRQAPGKERELVAAINWSGGSTYYADSVKGRFSISRDNAKITVYVQMTSLKPEDTAVYYCAAFYQYVHYVWYDYWGQGSQVTVSS	low polyreactivity
QVQLVESGGGLVQAGGSLRLSCAASGIIFIWNTMGWYRQAPGKEREFVAAISRSGSGTSYADSVKGRFTISRDNAKNTVYLQMNSLKPEDTAVYYWDARLEWPYDMYYWGQGTQVTVSS	low polyreactivity
QVQLVESGGGLVQAGGSLRLSCAASGRIFVHNSMGWYRQAPGKERELVAAISSCGRTYYADSVKGRFTISRDNAKNTVYFQMNSLKPEDTAVYYCNAGRTNRAGRRWPMDYWGQGTHVTVSS	high polyreactivity
QVQLVESGGGLVQAGGSLRLSCAASGFIFWKNAMGWYRQAPGKERELVAAISWSGGRTYYADSVKGRFTISRDNAKNTVYLQMNSLKPEDTAVYYCNAAGRYKPGAPYDYWGQGTQVTVSS	low polyreactivity
QVQHVESGGGLVQAGGSLRLSCAASGFIFRWYAMGWYRQAPGKERELVAAITTSGGITYYADSVKGRFTISRDNAKNTVYLQMNSLKPEDTAVYYCNRSPWYGPWHPNSFGSGDYWGQGTQVTVSS	low polyreactivity
QVQHEESGGGLVQAGGSLRLSCAASGRIFGAYPMGWSRQATGKERELVAAITSRGGNTYYADSVKGRFTISRDNAKNTVYLQMNSLKPEDTAVYYCAARHDKRRQYYVGQSAFDYWGQGTQVTVSS	low polyreactivity
QVQLVESGGGLVQAGGTLRLSCAASGSTFVDYAMGWYRQAPGKERELVAGINGSGGSTYYADSVKGRFTISRDNAKNTVYLQMNSLKPEDTAVYYCAKDGSNRLALPAWDYNYWGQGTQVTVSS	low polyreactivity
QVQLVESGGGLVQAGGSLRLSCAASGFTFWPNAMGWYRQAPGKERELVAAINWSGGSTYYADSVKGRFTISRDNAKYTVSLQKNSLKPEDTAVYYCAADYVTNITFDGFNKYDYWGQGTQVTVSS	low polyreactivity
QVQLVESGGGLVQAGGSLRLICAASGRTFPYNAMGWSRQAPGKERELVARITSGGRTYYADSVKGRFTISRDNAKNTVYLQMNSLKPEDPAVYYCAAETLRYYWKSYDWGQGTQVTVSA	high polyreactivity
QVQLVESGGGLVQAGGSLRLSCAASGRTFINYAMGWYRQAPGKERELVAAITTGGRTNYADSVKGRFTISRDNAKHTVYLQMNSLKPEDTAVYYCAADRYYWGRYTLNYWGQGTQVTVSS	low polyreactivity
QVQLVESGGGLVQAGGSLRLSCAASGRIFYYYAMGWYRQAPGKERELVAAISSIDGTTYYADSVKGRFTISRDNAKNTVYLQMNSLKPEDTAVYYCAAEDPADQYDYWGQGTQVTVSS	high polyreactivity
